# Patent US20190388532A1 (ENTEROME S A, published 2019)
# B1: IL13RA2-B (antigenic peptide FLPFGFILV, SEQ ID No 31) (peptide)
# peptide: FLPFGFILV
# notes: also called candidate peptide; IL13RA2-B pAg
# Molecular target: T1, HLA-A*0201 molecule expressed by T2 cells (human)
# T1 construct: MHC class I molecule on T2 cells
# Assay: T2 cell HLA-A*0201 surface expression assay, flow cytometry; relative affinity = peptide concentration inducing 20% HLA-A*0201 expression / that of reference peptide HIV pol 589-597
# Procedure: T2 cells (2.10⁵ cells per well) were incubated with decreasing conceontrations of peptides from 100 μM to 0.1 μM in a AIMV medium supplemented with 100 ng/μl of human β2 m at 37° C. for 16 hours. Cells were then washed two times and marked with the anti-HLA-A2 antibody coupled to PE (clone BB7.2, BD Pharmagen).
# The experimental protocol, materials and methods correspond to those outlined in Example 3, with the only difference that the above mentioned antigenic peptides were used.
row,Binder,In vitro binding affinity
1,ILPFGFILA [peptide 1I9A],2.22
2,B1,0.49
3,ALPFGFILV (also called IL13RA2-ST) [peptide 1A9V (Eguchi et al. 2006)],3.06
4,FLPFGFILM [peptide 1F9M],2.62
